We go through 12 molecules from patent publication US20040176301A1 (CYCLACEL, published 2004).

What all share (experiment): cell-based or functional assay
In test [1] the target is T1, CDK2/cyclin A (UniProt P24941 1-298; P20248 1-432).
Test [2] has as its target T2, CDK2/Cyclin E complex (UniProt P24941 1-298; P24864 1-410).
The target in test [3] is T3, CDK4/Cyclin D1 complex (UniProt P11802 1-303; P24385 1-295).
Test [4] deals with T1, CDK2/cyclin A. The source holds these as a separate data set.
Test [5] deals with T2, CDK2/Cyclin E complex. The source holds these as a separate data set.
In test [6] the target is T3, CDK4/Cyclin D1 complex. This is another data set of the same source.

Like-named read-outs stand apart in the source and are kept apart here. Square brackets hold non-standard residues; d marks the D form. Ends that are not written are not given here. 2Nal = N[C@@H](Cc1ccc2ccccc2c1)C(=O)O; Tic = O=C(O)[C@@H]1Cc2ccccc2CN1; Nle = CCCC[C@H](N)C(=O)O; Nva = CCC[C@H](N)C(=O)O; Abu = CC[C@H](N)C(=O)O Some results are limits rather than exact numbers.

T3 sequence (P11802 other isoform, or with tags, fused parts or gaps, chain 1 of 2): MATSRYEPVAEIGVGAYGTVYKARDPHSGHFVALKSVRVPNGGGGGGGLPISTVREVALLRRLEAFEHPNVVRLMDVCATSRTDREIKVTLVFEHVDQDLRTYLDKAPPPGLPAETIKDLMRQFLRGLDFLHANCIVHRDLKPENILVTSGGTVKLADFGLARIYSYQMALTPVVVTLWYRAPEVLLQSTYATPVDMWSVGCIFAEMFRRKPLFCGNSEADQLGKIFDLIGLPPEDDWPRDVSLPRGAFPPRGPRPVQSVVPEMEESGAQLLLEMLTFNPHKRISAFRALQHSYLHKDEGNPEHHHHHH
T3 sequence (P24385 whole entry, chain 2 of 2): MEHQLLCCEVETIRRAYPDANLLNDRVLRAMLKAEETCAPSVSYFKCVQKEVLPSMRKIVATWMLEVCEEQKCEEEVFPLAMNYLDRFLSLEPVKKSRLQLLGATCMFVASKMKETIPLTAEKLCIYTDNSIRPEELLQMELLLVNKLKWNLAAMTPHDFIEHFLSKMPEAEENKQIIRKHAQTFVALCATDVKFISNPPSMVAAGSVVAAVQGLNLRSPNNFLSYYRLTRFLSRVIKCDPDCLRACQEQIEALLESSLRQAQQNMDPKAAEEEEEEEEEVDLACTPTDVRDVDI

As to H-HAKRRLVF-NH2 [H-His-Ala-Lys-Arg-Arg-Leu-Val-Phe-NH2], the “Relative activity, Kinase Inhibition (CDK2/cyclin A kinase assay, pRb substrate, [ATP] = 100 µM)” value in the test with CDK2/cyclin A [1] was 0.8 relative to H-His-Ala-Lys-Arg-Arg-Leu-Ile-Phe-NH2 (=1).
Turning to KAXRRLIF (U at position 3 (read as Abu); C-terminal carboxamide) [P21 N-terminus-LIF hybrid KAURRLIF-NH2], the “% Inhibition, cyclin E/CDK2 kinase” value in the test with CDK2/Cyclin E complex [2] worked out at 78%. Also, in the test with CDK4/Cyclin D1 complex [3], the “% Inhibition, cyclin D1/CDK4 kinase” value is 83% and the “IC50, cyclin D1/CDK4 kinase” value was 13 µM.
Regarding H-HAKRRLLF-NH2 [H-His-Ala-Lys-Arg-Arg-Leu-Leu-Phe-NH2], the “Relative activity, Kinase Inhibition (CDK2/cyclin A kinase assay, pRb substrate, [ATP] = 100 µM)” value with CDK2/cyclin A [1] was 1.2 relative to H-His-Ala-Lys-Arg-Arg-Leu-Ile-Phe-NH2 (=1).
KA[Abu]RRLFG-NH2 [P21 N-terminus peptide KAURRLFG-NH2]: in the test with CDK2/Cyclin E complex [2], the “% Inhibition, cyclin E/CDK2 kinase” value turned out to be 86% and the “IC50, cyclin E/CDK2 kinase” value is 0.074 µM. In the test with CDK4/Cyclin D1 complex [3], the “% Inhibition, cyclin D1/CDK4 kinase” value worked out at 66% and the “IC50, cyclin D1/CDK4 kinase” value was determined as 42 µM.

B1: H-His-Ala-Lys-Arg-Arg-Leu-Ile-2Nap-NH2 (peptide)
peptide: H-HAKRRLI[2Nal]-NH2
SMILES: CC[C@H](C)[C@H](NC(=O)[C@H](CC(C)C)NC(=O)[C@H](CCCNC(=N)N)NC(=O)[C@H](CCCNC(=N)N)NC(=O)[C@H](CCCCN)NC(=O)[C@H](C)NC(=O)[C@@H](N)Cc1c[nH]cn1)C(=O)N[C@@H](Cc1ccc2ccccc2c1)C(N)=O
Regarding B1, the “Relative activity, Kinase Inhibition (CDK2/cyclin A kinase assay, pRb substrate, [ATP] = 100 µM)” value in the test with CDK2/cyclin A [4] was 1.2 relative to H-His-Ala-Lys-Arg-Arg-Leu-Ile-Phe-NH2 (=1).
For the molecule HSKRRLFG-NH2 [P21 C-terminius-LFG hybrid HSKRRLFG-NH2], in the test with CDK2/Cyclin E complex [2], the “% Inhibition, cyclin E/CDK2 kinase” value was 82% and the “IC50, cyclin E/CDK2 kinase” value came to 1.6 µM. In addition, the “% Inhibition, cyclin D1/CDK4 kinase” value in the test with CDK4/Cyclin D1 complex [3] was 42%.

B2: H-His-Ala-Lys-Arg-Arg-Leu-Nva-Phe-NH2 (peptide)
peptide: H-HAKRRL[Nva]F-NH2
SMILES: CCC[C@H](NC(=O)[C@H](CC(C)C)NC(=O)[C@H](CCCNC(=N)N)NC(=O)[C@H](CCCNC(=N)N)NC(=O)[C@H](CCCCN)NC(=O)[C@H](C)NC(=O)[C@@H](N)Cc1c[nH]cn1)C(=O)N[C@@H](Cc1ccccc1)C(N)=O
Take B2: in the test with CDK2/cyclin A [1], the “Relative activity, Kinase Inhibition (CDK2/cyclin A kinase assay, pRb substrate, [ATP] = 100 µM)” value is 0.2 relative to H-His-Ala-Lys-Arg-Arg-Leu-Ile-Phe-NH2 (=1).
As for HSKRRLIF-NH2 [p21 (152-159) HSKRRLIF-NH2], in the test with CDK2/Cyclin E complex [5], the “% Inhibition, cyclin E/CDK2 kinase” value was 80% and the “IC50, cyclin E/CDK2 kinase, GST-pRb” value is 3.4 µM. Besides, the “% Inhibition, cyclin D1/CDK4 kinase” value with CDK4/Cyclin D1 complex [6] was 72%. Moreover, in the test with CDK2/Cyclin E complex [2], the “% Inhibition, cyclin E/CDK2 kinase” value was 80% and the “IC50, cyclin E/CDK2 kinase” value was found to be 3.4 µM. The “% Inhibition, cyclin D1/CDK4 kinase” value with CDK4/Cyclin D1 complex [3] stood at 72%.
Regarding H-HAKRRLAF-NH2 [H-His-Ala-Lys-Arg-Arg-Leu-Ala-Phe-NH2], in the test with CDK2/cyclin A [1], the “Relative activity, Kinase Inhibition (CDK2/cyclin A kinase assay, pRb substrate, [ATP] = 100 µM)” value was 0.3 relative to H-His-Ala-Lys-Arg-Arg-Leu-Ile-Phe-NH2 (=1).

B3: H-His-Ala-Lys-Arg-Arg-Leu-Ile-Tic-NH2 (peptide)
peptide: H-HAKRRLI[Tic]-NH2
SMILES: CC[C@H](C)[C@H](NC(=O)[C@H](CC(C)C)NC(=O)[C@H](CCCNC(=N)N)NC(=O)[C@H](CCCNC(=N)N)NC(=O)[C@H](CCCCN)NC(=O)[C@H](C)NC(=O)[C@@H](N)Cc1c[nH]cn1)C(=O)N1Cc2ccccc2C[C@H]1C(N)=O
On to B3, for which, in the test with CDK2/cyclin A [4], the “Relative activity, Kinase Inhibition (CDK2/cyclin A kinase assay, pRb substrate, [ATP] = 100 µM)” value is 0.3 relative to H-His-Ala-Lys-Arg-Arg-Leu-Ile-Phe-NH2 (=1).
On the same count and under the same terms, the result for H-HAKRRLIK-NH2 [H-His-Ala-Lys-Arg-Arg-Leu-Ile-Lys-NH2] reads < 0.1 relative to H-His-Ala-Lys-Arg-Arg-Leu-Ile-Phe-NH2 (=1).

B4: H-His-Ala-Lys-Arg-Arg-Leu-Nle-Phe-NH2 (peptide)
peptide: H-HAKRRL[Nle]F-NH2
SMILES: CCCC[C@H](NC(=O)[C@H](CC(C)C)NC(=O)[C@H](CCCNC(=N)N)NC(=O)[C@H](CCCNC(=N)N)NC(=O)[C@H](CCCCN)NC(=O)[C@H](C)NC(=O)[C@@H](N)Cc1c[nH]cn1)C(=O)N[C@@H](Cc1ccccc1)C(N)=O
For the molecule B4, the “Relative activity, Kinase Inhibition (CDK2/cyclin A kinase assay, pRb substrate, [ATP] = 100 µM)” value with CDK2/cyclin A [1] was 0.4 relative to H-His-Ala-Lys-Arg-Arg-Leu-Ile-Phe-NH2 (=1).
